Square brackets hold non-standard residues; d marks the D form. Primed or numbered codes have the meaning given here. Ends that are not written are not given here. dCha = N[C@H](CC1CCCCC1)C(=O)O; dNle = CCCC[C@@H](N)C(=O)O; PEG2′ = not defined here; Tam = not defined here
T1: Ac-VQIINK-NH2 (SEQ ID NO: 23)
T1 sequence (peptide, N-terminal acetyl (Ac); C-terminal amide (NH2)): RLKIRW

T2: Tau40 P301L protein (human)
T2 sequence: WIKIRR

T3: His-Tau40 P301L Tau fibrils (human)
T3 chain: RLRIRW

B1: brlkvrw (peptide)
peptide: [dCha][dR][dL][dK][dV][dR][dW]
modifications: not fully specified; printed as brlkvrw
B2: lkuruhy (peptide)
peptide: [dL][dK][dNle][dR][dNle][dH][dY]
B3: ukirihy (peptide)
peptide: [dNle][dK][dI][dR][dI][dH][dY]
B4: urlkvrw (peptide)
peptide: [dNle][dR][dL][dK][dV][dR][dW]
B5: lkurihy (peptide)
peptide: [dL][dK][dNle][dR][dI][dH][dY]
B6: lkiruhy (peptide)
peptide: [dL][dK][dI][dR][dNle][dH][dY]
B7: wrukvrw (peptide)
peptide: [dW][dR][dNle][dK][dV][dR][dW]
B8: wrlkbrw (peptide)
peptide: [dW][dR][dL][dK][dCha][dR][dW]
modifications: not fully specified; printed as wrlkbrw
B9: wrukurw (peptide)
peptide: [dW][dR][dNle][dK][dNle][dR][dW]
B10: wrbkbrw (peptide)
peptide: [dW][dR][dCha][dK][dCha][dR][dW]
modifications: not fully specified; printed as wrbkbrw
B11: wrlkurw (peptide)
peptide: [dW][dR][dL][dK][dNle][dR][dW]
B12: wrbkvrw (peptide)
peptide: [dW][dR][dCha][dK][dV][dR][dW]
modifications: not fully specified; printed as wrbkvrw
B13: bkirihy (PEPTIDE ID NO: 249) (peptide)
peptide: [dCha][dK][dI][dR][dI][dH][dY]
B14: wrbkvrw (PEPTIDE ID NO: 286) (peptide)
peptide: [dW][dR][dCha][dK][dV][dR][dW]
B15: brlkvrw (PEPTIDE ID NO: 293) (peptide)
peptide: [dCha][dR][dL][dK][dV][dR][dW]
B16: ukirihy (PEPTIDE ID NO: 203) (peptide)
peptide: [dNle][dK][dI][dR][dI][dH][dY]
B17: wrlkbrw (PEPTIDE ID NO: 307) (peptide)
peptide: [dW][dR][dL][dK][dCha][dR][dW]
B18: lkirbhy (PEPTIDE ID NO: 228) (peptide)
peptide: [dL][dK][dI][dR][dCha][dH][dY]
B19: wrlkurw (PEPTIDE ID NO: 308) (peptide)
peptide: [dW][dR][dL][dK][dNle][dR][dW]
B20: lkuruhy (PEPTIDE ID NO: 287) (peptide)
peptide: [dL][dK][dNle][dR][dNle][dH][dY]
B21: Tam-RRRRRRRRRR-GGSGG-wkvqvrlw (peptide)
peptide: Tam-RRRRRRRRRRGGSGG[dW][dK][dV][dQ][dV][dR][dL][dW]
modifications: reading uncertain; also: printed as Tam-RRRRRRRRRR-GGSGG-wkvqvrlw
B22: Tam-[…]-GGSGG-wrlkvrww (peptide)
peptide: Tam-YGRKKRRQRRRGGSGG[dW][dR][dL][dK][dV][dR][dW][dW]
modifications: reading uncertain
B23: Tam-RRRRRRRRRR-GGSGG-tlkivw (peptide)
peptide: Tam-RRRRRRRRRRGGSGG[dT][dL][dK][dI][dV][dW]
modifications: reading uncertain; also: printed as Tam-RRRRRRRRRR-GGSGG-tlkivw
B24: Tam-RRRRRRRRR-GGSGG-rlkvrw (peptide)
peptide: Tam-RRRRRRRRRGGSGG[dR][dL][dK][dV][dR][dW]
modifications: reading uncertain; also: printed as Tam-RRRRRRRRR-GGSGG-rlkvrw
B25: Tam-RRRRRRRRRR-GGSGG-lelkikfw (peptide)
peptide: Tam-RRRRRRRRRRGGSGG[dL][dE][dL][dK][dI][dK][dF][dW]
modifications: reading uncertain; also: printed as Tam-RRRRRRRRRR-GGSGG-lelkikfw
B26: Tam-RRRRRRRRR-GGSGG-wrlkvrww (peptide)
peptide: Tam-RRRRRRRRRGGSGG[dW][dR][dL][dK][dV][dR][dW][dW]
modifications: reading uncertain; also: printed as Tam-RRRRRRRRR-GGSGG-wrlkvrww
B27: Tam-[…]-GGSGG-rlkvrw (peptide)
peptide: Tam-YGRKKRRQRRRGGSGG[dR][dL][dK][dV][dR][dW]
modifications: reading uncertain
B28: TAMRA5-PEG2-wrakaraw-OH (peptide)
peptide: {TAMRA5-PEG2′}-[dW][dR][dA][dK][dA][dR][dA][dW]-OH
B29: Tam-RRRRRRRRRR-GGSGG-wriwiryw (peptide)
peptide: Tam-RRRRRRRRRRGGSGG[dW][dR][dI][dW][dI][dR][dY][dW]
modifications: reading uncertain; also: printed as Tam-RRRRRRRRRR-GGSGG-wriwiryw
B30: RRRRRRRRR-GGSGG-rlkvrw (peptide)
peptide: RRRRRRRRRGGSGG[dR][dL][dK][dV][dR][dW]
B31: […]-GGSGG-rlkvrw (peptide)
peptide: YGRKKRRQRRRGGSGG[dR][dL][dK][dV][dR][dW]
B32: Tam-RRRRRRRRRR-GGSGG-elkivw (peptide)
peptide: Tam-RRRRRRRRRRGGSGG[dE][dL][dK][dI][dV][dW]
modifications: reading uncertain; also: printed as Tam-RRRRRRRRRR-GGSGG-elkivw
B33: RRRRRRRRRR-GGSGG-wrlkvrww (peptide)
peptide: RRRRRRRRRRGGSGG[dW][dR][dL][dK][dV][dR][dW][dW]
B34: RRRRRRRRRR-GGSGG-lelkikfw (peptide)
peptide: RRRRRRRRRRGGSGG[dL][dE][dL][dK][dI][dK][dF][dW]
B35: RRRRRRRRR-GGSGG-wriwiryw (peptide)
peptide: RRRRRRRRRGGSGG[dW][dR][dI][dW][dI][dR][dY][dW]
B36: RRRRRRRRRR-GGSGG-elkivw (peptide)
peptide: RRRRRRRRRRGGSGG[dE][dL][dK][dI][dV][dW]
B37: RRRRRRRRRR-GGSGG-wkvqvrlw (peptide)
peptide: RRRRRRRRRRGGSGG[dW][dK][dV][dQ][dV][dR][dL][dW]
B38: RRRRRRRRRR-GGSGG-tlkivw (peptide)
peptide: RRRRRRRRRRGGSGG[dT][dL][dK][dI][dV][dW]

Molecular target: T1, Ac-VQIINK-NH2 (SEQ ID NO: 23)
Experiment: cell-based or functional assay

Row | Binder | VQIINK Inhibition IC50 [µm]
1 | B1 | 2.31
2 | B2 | 0.87
3 | B3 | 1.12
4 | B4 | 2.29
5 | B5 | 1.5
6 | B6 | 2.07
7 | B7 | 2.1
8 | B8 | 0.35
9 | B9 | 1.73
10 | B10 | 0.77
11 | B11 | 1.41
12 | B12 | 0.41

Molecular target: T2, Tau40 P301L protein (human)
Experiment: cell-based or functional assay

Row | Binder | IC50, Tau40 assay (ThT) [µM]
13 | B13 | 1.09
14 | B14 | 1.65
15 | B15 | 1.82
16 | B9 | 7.21
17 | B10 | 9.33
18 | B16 | 0.73
19 | B17 | 2.11
20 | B18 | 0.9
21 | B19 | 2.12
22 | B20 | 1.65

Molecular target: Tau40 P301L protein (human)
Experiment: cell-based or functional assay

Row | Binder | IC50, Tau40 assay-Modified peptides (ThT) [µM]
23 | B21 | 5.53
24 | B22 | 6.6
25 | B23 | 4.92
26 | B24 | 20.1
27 | B25 | 8.71
28 | B26 | 20.5
29 | B27 | 6.6
30 | B28 | 9.17
31 | B29 | 4.94
32 | B30 | 6.07
33 | B31 | 1.73

Molecular target: T3, His-Tau40 P301L Tau fibrils
Experiment: cell-based or functional assay

Row | Binder | EC50, HEK cell assay (TauRD(P301S) split luciferase, seeded with tau fibrils) [µM]
34 | B21 | 1.5
35 | B22 | 1.8
36 | B23 | 3.6
37 | B25 | 12.1
38 | B26 | 1.5
39 | B32 | 5.6
40 | B33 | 1.7

Molecular target: T3, His-Tau40 P301L Tau fibrils
Experiment: cell-based or functional assay
Remark: another data set of the same source

Row | Binder | EC50, HEK cell assay (TauRD(P301S) split luciferase, seeded with tau fibrils) [µM]
41 | B34 | 16.4
42 | B35 | 0.9
43 | B36 | 11.7
44 | B37 | 2.1
45 | B38 | 2.9
46 | B33 | 2.3
